{"source": "paper PMC7567440", "about": "(2020)", "binders": {"B1": {"name": "pigeon ovomucoid (natural protein)", "chain": "VEVDCSRYHNTTNVEGREGLPCTKDFNPICGSDGVTYDNECLLCSYNREYGTNVSKDHDGQCREVIPVDCSKYPNVTNEEGRVALFCTENLRLVCGADGVTYDNECLLCARSLERGTRAGKKYDGECRREITTVDCSDHPQHACTLNYLPVCGSDSRTYSNRCNFCNAVVHSNGTLTLNYFGEC", "modifications": "terminal Galα1-4Gal residues; biotin (biotinylated POVO in the BLI assay)"}}, "target": "recombinant flagellin of Bacillus cereus HN001 (WR52_08290) (Bacillus cereus HN001)", "test": "BLI", "data": [{"binder": "B1", "values": [{"measurement": "koff", "result": 0.000376, "unit": "s⁻¹"}]}]}
